Laboratory results as given in publication PMC6378094.

Substrate: NC(=O)C[C@H](N)C(=O)O
Experiment: purified protein
Conditions: 50 mM Tris-HCl, pH 8.6, 37 °C

B1: ASPase E (Leunase) (Escherichia coli K-12) (protein)
chain: LPNITILATGGTIAGGGDSATKSNYTVGKVGVENLVNAVPQLKDIANVKGEQVVNIGSQDMNDNVWLTLAKKINTDCDKTDGFVITHGTDTMEETAYFLDLTVKCDKPVVMVGAMRPSTSMSADGPFNLYNAVVTAADKASANRGVLVVMNDTVLDGRDVTKTNTTDVATFKSVNYGPLGYIHNGKIDYQRTPARKHTSDTPFDVSKLNELPKVGIVYNYANASDLPAKALVDAGYDGIVSAGVGNGNLYKSVFDTLATAAKTGTAVVRSSRVPTGATTQDAEVDDAKYGFVASGTLNPQKARVLLQLALTQTKDPQQIQQIFNQY
For B1, the Km was 5.788 µM, the kcat was 7.73 s⁻¹ and the kcat/Km was 1.34e+06 M⁻¹ s⁻¹.

B2: ASPase A1 (Bacillus licheniformis) (protein)
chain: MNKKVALITTGGTIASRKTESGRLAAGAISGPELAEMCSLPEDVQIDVYPAFQLPSMHITFEHLLELKQTIERVFQNGGYDGAVVTHGTDTLEETAYFLDLTIEDERPVVVTGSQRAPEQQGTDAYTNIRHAVYTACSPDIKGAGTVVVFNERIFNARYVKKVHASNLQGFDVFGFGYLGIIDNDKVYVYQKPLKRDVHQLQRPLPAVDIVKCYLDGDGKFIRAAVREGVEGIVLEGVGRGQVPPNMMADIEQALNQGVYIVITTSAEEGEVYTTYDYAGSSYDLAKKGVILGKDYDSKKARMKLAVLLASYKEGLKDKFCY
Protein B2 has a Km of 10.30 µM, a kcat of 24 s⁻¹ and a kcat/Km of 2.33e+06 M⁻¹ s⁻¹.
